The target in experiment [1] is IsaA oligopeptide SEQ ID NO: 11 (Staphylococcus aureus). The experiment in a line: peptide array on glass slide, fluorescent secondary antibody.
In experiment [2] the target is IsaA oligopeptide SEQ ID NO: 12 (Staphylococcus aureus). The description is as above.
Experiment [3] has as its target T1, IsaA oligopeptide SEQ ID NO: 13 (Staphylococcus aureus).
T1 sequence (peptide): TGYAAGTGHQAHAAE
The description is as above.

The target in experiment [4] is T2, IsaA oligopeptide SEQ ID NO: 14 (Staphylococcus aureus).
T2 sequence (peptide): AGTGHQAHAAEVNVD
Described as above.

The target in experiment [5] is T3, IsaA oligopeptide SEQ ID NO: 16 (Staphylococcus aureus).
T3 sequence (peptide): AAEVNVDQAHLVDLA
Described as above.

Experiment [6] has as its target IsaA oligopeptide SEQ ID NO: 17 (Staphylococcus aureus). The experiment is described as above.
Experiment [7] deals with IsaA oligopeptide SEQ ID NO: 18 (Staphylococcus aureus). Described as above.
In experiment [8] the target is IsaA oligopeptide SEQ ID NO: 20 (Staphylococcus aureus). The description is as above.
Experiment [9] addresses IsaA oligopeptide SEQ ID NO: 21 (Staphylococcus aureus). The description is as above.
Experiment [10] concerns the target IsaA oligopeptide SEQ ID NO: 22 (Staphylococcus aureus). The experiment is described as above.
In experiment [11] the target is T4, IsaA oligopeptide SEQ ID NO: 28 (Staphylococcus aureus).
T4 sequence (peptide): GTTWSWSYEAANGQT
The description is as above.

Experiment [12] concerns the target T5, IsaA oligopeptide SEQ ID NO: 29 (Staphylococcus aureus).
T5 sequence (peptide): SWSYEAANGQTAGFS
Described as above.

Experiment [13] deals with T6, IsaA oligopeptide SEQ ID NO: 30 (Staphylococcus aureus).
T6 sequence (peptide): EAANGQTAGFSNVAG
The experiment is described as above.

In experiment [14] the target is T7, IsaA oligopeptide SEQ ID NO: 31 (Staphylococcus aureus).
T7 sequence (peptide): GQTAGFSNVAGADYT
Described as above.

Experiment [15] deals with IsaA oligopeptide SEQ ID NO: 33 (Staphylococcus aureus). The description is as above.
Experiment [16] has as its target T8, IsaA oligopeptide SEQ ID NO: 36 (Staphylococcus aureus).
T8 sequence (peptide): GSDVQSVSYNAQSSN
The experiment is described as above.

The target of experiment [17] is IsaA oligopeptide SEQ ID NO: 39 (Staphylococcus aureus). The description is as above.
Experiment [18] deals with IsaA oligopeptide SEQ ID NO: 40 (Staphylococcus aureus). The description is as above.
In experiment [19] the target is IsaA oligopeptide SEQ ID NO: 41 (Staphylococcus aureus). The description is as above.
The target in experiment [20] is IsaA oligopeptide SEQ ID NO: 42 (Staphylococcus aureus). The experiment is described as above.
Experiment [21] deals with IsaA oligopeptide SEQ ID NO: 47 (Staphylococcus aureus). The experiment is described as above.
The target of experiment [22] is IsaA oligopeptide SEQ ID NO: 48 (Staphylococcus aureus). Described as above.
In experiment [23] the target is IsaA oligopeptide SEQ ID NO: 49 (Staphylococcus aureus). The experiment is described as above.
Experiment [24] has as its target IsaA oligopeptide SEQ ID NO: 51 (Staphylococcus aureus). The description is as above.
The target of experiment [25] is IsaA oligopeptide SEQ ID NO: 52 (Staphylococcus aureus). The description is as above.
Experiment [26] has as its target IsaA oligopeptide SEQ ID NO: 54 (Staphylococcus aureus). The experiment is described as above.
The target of experiment [27] is IsaA oligopeptide SEQ ID NO: 55 (Staphylococcus aureus). The experiment is described as above.
Experiment [28] deals with IsaA oligopeptide SEQ ID NO: 56 (Staphylococcus aureus). The description is as above.
Experiment [29] deals with IsaA oligopeptide SEQ ID NO: 58 (Staphylococcus aureus). Described as above.
In experiment [30] the target is IsaA oligopeptide SEQ ID NO: 59 (Staphylococcus aureus). The experiment is described as above.
Experiment [31] concerns the target T9, IsaA oligopeptide SEQ ID NO: 60 (Staphylococcus aureus).
T9 sequence (peptide): GWGPTNTVDQQINAA
The description is as above.

Experiment [32] deals with IsaA oligopeptide SEQ ID NO: 62 (Staphylococcus aureus). The experiment is described as above.
Experiment [33] addresses IsaA oligopeptide SEQ ID NO: 64 (Staphylococcus aureus). The experiment is described as above.
Experiment [34] addresses IsaA oligopeptide SEQ ID NO: 9 (Staphylococcus aureus). The description is as above.
The target of experiment [35] is T10, recombinant IsaA protein of Staphylococcus aureus (29 kDa immunodominant antigen IsaA) (Staphylococcus aureus, UniProt Q2FV52 30-233, limits assumed).
T10 construct: Coated as rIsaA in the ELISA; In the first SPR experiment it was N-biotinylated with sulfo-NHS-LC-biotin (mostly at a single site) and immobilised on streptavidin; In the second SPR experiment it was the analyte in solution; also called rIsaA; 29 kDa IsaA antigen
T10 sequence (looked up): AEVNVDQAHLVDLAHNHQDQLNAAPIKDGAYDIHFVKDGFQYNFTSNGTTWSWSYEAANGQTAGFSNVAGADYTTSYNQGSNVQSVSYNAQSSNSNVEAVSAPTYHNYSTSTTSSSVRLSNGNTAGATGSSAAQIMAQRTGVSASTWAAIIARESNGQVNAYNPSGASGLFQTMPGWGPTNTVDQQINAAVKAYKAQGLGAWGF
The experiment is described as follows: SPR (BIACORE 2000), biotinylated IsaA on streptavidin chip, antibody as analyte. (In general: Surface plasmon resonance follows binding to a sensor surface in real time, without labels.)
Method: The amount of the immobilized antigen corresponds to about 100 resonance units [RU] measured by means of the BIACORE®2000 system.
Interaction analyses were performed using HBS150 buffer (10 mM HEPES pH7.4, 150 mM NaCl, 3.4 mM EDTA). Sensorgrams were recorded at a flow rate of 10 μl/min at 25° C. The association and dissociation time was set to 10 min. The chips were regenerated after each cycle with different regeneration solutions (A: 1 mM CH₃COOH, 1 M NaCl, pH 3; B: 4 M MgCl₂; C: 1 mM CH₃COOH, 1 M NaCl, 6 M Urea, pH 3) for 2 min.

Experiment [36] deals with T10, recombinant IsaA protein of …. The experiment in a line: SPR (BIACORE 2000), antibody captured on anti-mouse Fc surface, IsaA as analyte, 1:1 Langmuir fit.
Method: A blank anti mouse Fc surface was used as control surface for monitoring unspecific binding and performing reference subtraction. Interaction analyses were performed using HBS-EP buffer (10 mM HEPES pH 7.4, 150 mM NaCl, 3 mM EDTA, 0.005% Tween 20). Sensorgrams were recorded at a flow rate of 30 μl/min at 25° C. Association and dissociation times were set to 3 and 15 min, respectively.
The anti-Fc capturing surfaces were regenerated after each cycle using short pulses of 10 mM glycine pH 1.7.
Affinities and rate constants for association (kₒₙ) and for dissociation (koff) were calculated using the BIAevaluation software 4.0.1 fitting the obtained sensorgrams to a 1:1 Langmuir binding model.

The values that follow come from patent publication US20160109449A1 (JULIUS MAXIMILIANS UNIVERSITAET WUERZBURG, published 2016).

Consider “control antibodies (peptide array) (antibody)”, for which the Binding (fluorescence intensity) in [1] is -11; in experiment [2] it was -22; in [3], 367; in [4], -35; in experiment [5], 117; in [6], 48. Moreover, the Binding (fluorescence intensity) in [7] is -119; in experiment [8], 106; in [9], 182; in experiment [10], 26.3; in experiment [11], 77.3; in [12], 85.7. The Binding (fluorescence intensity) was -7 in experiment [13]; -20 in [14]; -0.7 in [15]; -14.3 in experiment [16]; 109 in experiment [17]; -27 in experiment [18]. Also, the Binding (fluorescence intensity) is 29.3 in [19]; 35.7 in [20]; 14.7 in [21]; 398 in experiment [22]; 40 in experiment [23]; 58 in experiment [24]. Besides, the Binding (fluorescence intensity) in [25] was -60; in experiment [26], -51.7; in experiment [27] it was 36; in experiment [28] it was -17.3; in experiment [29], 46.3; in experiment [30], 132. Moreover, the Binding (fluorescence intensity) came out at 18.7 in experiment [31], 6.3 in experiment [32], 42 in experiment [33] and 70 in experiment [34].

B1: monoclonal antibody MAB-UK-66 secreted by hybridoma cell line DSM ACC2987 (antibody, V domains shown)
VH: DVKLVESGGGLVKLGGSLKLSCSASGFTFSNYYMSWVRQTPEKRLELVADINGNGGSTYYPDTVKGRFTISRDNAKNTLYLQMSSLKSEDTALYYCVRRGGYYALDYWGQGTTVTVSS
VL: DVVMTQTPLSLPVSLGDQASISCRSSQSLVHINGNTYLHWYLQKPGQSPKLLIYRVSNRFSGVPDRFSGSGSGTDFTLKISRVEAEDLGVYFCSQSTHVPWTFGGGTKLELKR
notes: Monoclonal mouse antibody from a hybridoma; Detected with anti-mouse IgG; also called antibodies secreted by cell line DSM ACC2987; anti-IsaA MAB
Usually koff stands for the first-order rate constant of dissociation. The term Kd denotes the free concentration of one partner at which half of the binding sites on the other are occupied at equilibrium, for simple one-to-one binding. The term kon denotes a measure of how fast the partners come together. On to B1, for which the Binding (fluorescence intensity) in [3] came to 5750; in experiment [4] it was 3190; in [5], 1950; in experiment [11] it was 3170; in experiment [12], 2490; in experiment [13], 1670. For the same molecule, the Binding (fluorescence intensity) in experiment [14] came to 2940; in [16], 2740; in experiment [18], 6010; in experiment [31] it was 3070. For the same molecule, the off-rate constant (koff) in experiment [35] was less than 1e-05 s⁻¹; in experiment [36], 0.00029 s⁻¹. The dissociation constant Kd in [36] was found to be 1.7 nM. Moreover, the kon in experiment [36] worked out at 180000 M⁻¹ s⁻¹.
